# Measured values: patent publication US20230082287A1, “METHODS OF TREATING AN INFLAMMATORY OR OBSTRUCTIVE AIRWAY DISEASE USING ANTI-TSLP ANTIBODY” (Novartis AG, priority 2020, published 2023)
# B1: CSJ117: potent neutralizing antibody fragment (Fab) directed against human TSLP; heavy chain SEQ ID NO: 9, light chain SEQ ID NO: 19 (antibody)
# heavy: EVQLVESGGGLVKPGGSLRLSCAASGFTFSDYWMHWVRQAPGKGLEWVGHIKSKTDAGTTDYAAPVKGRFTISRDDSKNTLYLQMNSLKTEDTAVYYCAREIYYYAFDSWGQGTLVTVSSASTKGPSVFPLAPSSKSTSGGTAALGCLVKDYFPEPVTVSWNSGALTSGVHTFPAVLQSSGLYSLSSVVTVPSSSLGTQTYICNVNHKPSNTKVDKRVEPKSC
# light: SYELTQPLSVSVALGQTARITCSGDNIGSKYVHWYQQKPGQAPVLVIYGDNERPSGIPERFSGSNSGNTATLTISRAQAGDEADYYCQAADWVDFYVFGGGTKLTVLGQPKAAPSVTLFPPSSEELQANKATLVCLISDFYPGAVTVAWKADSSPVKAGVETTTPSKQSNNKYAASSYLSLTPEQWKSHRSYSCQVTHEGSTVEKTVAPTECS
# What was measured:
# [1] = Phase 2a bronchoprovocation study: safety and tolerability; assay type: in vivo; details: 12 weeks
# From the text: (§1) This was a non-confirmatory, randomized, subject- and investigator-blinded, placebo-controlled, parallel-design, multi-center bronchoprovocation study. […] Two sequential dose cohorts were enrolled for this study. • Cohort 1: 24 subjects (12 active and 12 placebo) • Cohort 2a: 4 subjects (3 active and 1 placebo)
# No adverse events (AE) imbalance observed across treatment groups. […] No subject discontinued study drug due to an adverse event. The most frequent treatment-emergent adverse events were headache, nasopharyngitis, and oropharyngeal pain.
# [2] = test system: allergen inhalation challenge (AIC) in subjects with mild atopic asthma; experiment: Phase 2a allergen bronchoprovocation study (LAR, EAR, FeNO); assay type: in vivo, human
# From the text: CSJ117, as an inhaled Fab targeting TSLP, offers the potential to be an efficacious therapy for severe asthma with a favorable safety and tolerability profile. This study used inhaled allergen bronchoprovocation testing as a model for allergic asthma, in an effort to predict CSJ117 efficacy in the eventual severe asthma patient population. As a model for allergic asthma, standardized inhaled allergen bronchoprovocation testing can induce the acute and some of the more chronic features of asthma in human subjects with mild atopic asthma. In sensitized subjects, inhalation of a relevant allergen results in acute bronchoconstriction (the early asthma response or EAR [EAR defined as ≥20% fall in forced expiratory volume in 1 second (FEV1) between 0-2 hours after inhalation of allergen] Boulet et al 2007). In approximately 50% of subjects the EAR is followed by an inflammatory airway response with prolonged airway narrowing (the late asthma response or LAR [LAR defined as ≥15% fall in FEV1 between 3-7 hours after inhalation of allergen] Boulet et al 2007). In general, inhibition of the LAR in the allergen bronchoprovocation model is a good predictor of clinical efficacy in the moderate to severe asthma patient population (Diamant et al 2013). The objectives of this allergen bronchoprovocation study were to characterize the safety, tolerability, pharmacokinetics (PK) and pharmacodynamic (PD) effects of CSJ117 in subjects with mild atopic asthma over 12 weeks of treatment to determine if further clinical development is warranted.
# as §1
# There was only one active dose used in the study, i.e. CSJ117 4 mg used for both Cohort 1 & 2a. Placebo subjects from all cohorts were pooled for analyses.
# For all cohorts, the study consisted of a 35-day screening period, a baseline evaluation, a 12-week treatment period (consisting of a single dose on Day 1, safety evaluation Days 1-3 and commencement of QD dosing on Day 3) and a 30-day follow up period (FIG. 3).
# On Day 1 (Visit 101) of the treatment period, after completion of all pre-dose assessments, subjects were randomized and received a single dose of CSJ117 or placebo in the morning and then underwent safety assessments, observation and PK sampling in-clinic for a period of 8 hours post-dose. On Day 2 (Visit 102), the subject returned to the clinic for evaluation and PK sampling. On Day 3 (Visit 103), the subjects returned to clinic for evaluation. On Day 3 (Visit 103) subjects took an inhaled dose of CSJ117 or placebo in the clinic. For the remaining duration of the 12-week treatment period, subjects took daily inhaled doses of CSJ117 or placebo, in the clinic on study visit days or at home. […]
# Dog, cat, horse, mouse, cattle, rat and bird allergens were included in the challenge. Table 6 and Table 7 show the fall in FEV1 values and percentages, respectively, after the allergen challenges. […]
# The early asthmatic response (EAR) after an allergen inhalation challenge on Day 42 and Day 84 was assessed by measuring the (1) area under the curve (AUC) time-adjusted percent fall in the FEV1, (2) maximum percent fall in the FEV1, and (3) minimum absolute FEV1 between 0 and 2 hours after […].
# [3] = Day 42, 4 mg QD inhaled (N = 12)
# [4] = Day 84, 4 mg QD inhaled (N = 13)
molecule,measurement,setting,value
B1,Severe or serious adverse events,[1]; 4 mg QD,No subject developed a severe or serious adverse event
same,Safety and tolerability,"[1]; mild asthmatics, 4 mg QD",safe and well tolerated
same,rate of moderately severe adverse events,[1]; subjects receiving CSJ117 4 mg QD,21.6%
same,"E, % [(B-A)/B]*100","[2]; CSJ117 4 mg OD, LAR max fall % FEV1",47.6%
same,"LAR B-A (placebo minus treatment), Max fall % FEV1","[2]; CSJ117 4 mg OD, PoC study",8.42
same,"LAR Treatment (A), Max fall % FEV1","[2]; CSJ117 4 mg OD, PoC study",9.28%
same,"LAR time adjusted AUC 3-7 h, Difference (CSJ117-Placebo) (Table 6)","[2]; Day 42, 4 mg QD",−2.64%
same,"LAR time adjusted AUC 3-7 h, Difference (CSJ117-Placebo) (Table 7)","[2]; Day 42, 4 mg QD",−2.90%
same,"LAR time adjusted AUC 3-7 h, Difference (CSJ117-Placebo) (Table 8)","[2]; Day 42, 4 mg QD",−1.02%
same,"LAR time adjusted AUC 3-7 h, Difference (CSJ117-Placebo) (Table 9)","[2]; Day 42, 4 mg QD",−4.70%
same,"LAR time adjusted AUC 3-7 h, model-based mean estimate (Table 6)",[2]; [3],13.11%
same,"LAR time adjusted AUC 3-7 h, model-based mean estimate (Table 7)",[2]; [3],6.46%
same,"LAR time adjusted AUC 3-7 h, model-based mean estimate (Table 8)",[2]; [3],15.11%
same,"LAR time adjusted AUC 3-7 h, model-based mean estimate (Table 9)",[2]; [3],27.85%
same,"LAR time adjusted AUC 3-7 h, Difference (CSJ117-Placebo) (Table 6)","[2]; Day 84, 4 mg QD",−8.42%
same,"LAR time adjusted AUC 3-7 h, Difference (CSJ117-Placebo) (Table 7)","[2]; Day 84, 4 mg QD",−7.18%
same,"LAR time adjusted AUC 3-7 h, Difference (CSJ117-Placebo) (Table 8)","[2]; Day 84, 4 mg QD",−4.26%
same,"LAR time adjusted AUC 3-7 h, Difference (CSJ117-Placebo) (Table 9)","[2]; Day 84, 4 mg QD",−5.41%
same,"LAR time adjusted AUC 3-7 h, model-based mean estimate (Table 6)",[2]; [4],9.28%
same,"LAR time adjusted AUC 3-7 h, model-based mean estimate (Table 7)",[2]; [4],4.20%
same,"LAR time adjusted AUC 3-7 h, model-based mean estimate (Table 8)",[2]; [4],12.83%
same,"LAR time adjusted AUC 3-7 h, model-based mean estimate (Table 9)",[2]; [4],25.48%
same,minimum absolute FEV1 between 3 and 7 hours compared with placebo,"[2]; Day 84, p-value of 0.050",statistically less
same,AUC of the time-adjusted fall in FEV1 during the late response,"[2]; day 84, 4 mg daily inhalation, vs placebo 11.38%, p=0.008",4.20%
same,maximum fall % FEV1 during the late response,"[2]; day 84, 4 mg daily inhalation, vs placebo 17.70%, P=0.029",9.28%
same,fractional exhaled nitric oxide (FeNO) compared with placebo,"[2]; over the 12-week treatment period, 4 mg QD",trend for a reduction
